Experimental data reported in the supplement of paper PMC10065799, “High-throughput profiling of sequence recognition by tyrosine kinases and SH2 domains using bacterial peptide display” (eLife, 2023).

Assays:
Fes = Fes (UniProt P07332); test: phosphorylation enrichment, bacterial display (enrichment ratio); higher = better substrate or ligand; peptides without Tyr show the background
c-Abl (mouse) = test: as above
Hck = Hck (UniProt P08631); test: as above
FGFR1 = FGFR1 (UniProt P11362); test: as above
c-Src = test: as above
EPHB1 = EPHB1 (UniProt P54762); test: as above
Jak2 = Jak2 (UniProt O60674); test: as above
Fyn = Fyn (UniProt P06241); test: as above
MERTK = MERTK (UniProt Q12866); test: as above
Fer (mouse) = test: as above
EPHB2 = EPHB2 (UniProt P29323); test: as above
FGFR3 = FGFR3 (UniProt P22607); test: as above
AncSZ = test: as above
Grb2 SH2 = Grb2 SH2 (UniProt P62993); test: SH2 binding enrichment of the phosphorylated peptide, bacterial display (enrichment ratio); higher = better substrate or ligand; peptides without Tyr show the background
c-Src SH2 = test: as above
SHP2-C SH2 = test: as above
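For SH2 binding enrichment of the phosphorylated peptide, bacterial display in this document: peptide library displayed on the E. coli surface as eCPX fusions, selected cells deep-sequenced, score is each peptide's frequency after selection divided by its frequency in the input.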
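For phosphorylation enrichment, bacterial display in this document: 11-residue human phosphosite peptides and single-mutation variants displayed on the E. coli surface, counted by deep sequencing, each peptide's frequency after selection divided by its frequency in the unselected input library; frequency after pTyr selection over input frequency; kinase dosed for 20-30% of maximal phosphorylation in three min.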

Sequence of EPHB2 (P29323 whole entry, looked up): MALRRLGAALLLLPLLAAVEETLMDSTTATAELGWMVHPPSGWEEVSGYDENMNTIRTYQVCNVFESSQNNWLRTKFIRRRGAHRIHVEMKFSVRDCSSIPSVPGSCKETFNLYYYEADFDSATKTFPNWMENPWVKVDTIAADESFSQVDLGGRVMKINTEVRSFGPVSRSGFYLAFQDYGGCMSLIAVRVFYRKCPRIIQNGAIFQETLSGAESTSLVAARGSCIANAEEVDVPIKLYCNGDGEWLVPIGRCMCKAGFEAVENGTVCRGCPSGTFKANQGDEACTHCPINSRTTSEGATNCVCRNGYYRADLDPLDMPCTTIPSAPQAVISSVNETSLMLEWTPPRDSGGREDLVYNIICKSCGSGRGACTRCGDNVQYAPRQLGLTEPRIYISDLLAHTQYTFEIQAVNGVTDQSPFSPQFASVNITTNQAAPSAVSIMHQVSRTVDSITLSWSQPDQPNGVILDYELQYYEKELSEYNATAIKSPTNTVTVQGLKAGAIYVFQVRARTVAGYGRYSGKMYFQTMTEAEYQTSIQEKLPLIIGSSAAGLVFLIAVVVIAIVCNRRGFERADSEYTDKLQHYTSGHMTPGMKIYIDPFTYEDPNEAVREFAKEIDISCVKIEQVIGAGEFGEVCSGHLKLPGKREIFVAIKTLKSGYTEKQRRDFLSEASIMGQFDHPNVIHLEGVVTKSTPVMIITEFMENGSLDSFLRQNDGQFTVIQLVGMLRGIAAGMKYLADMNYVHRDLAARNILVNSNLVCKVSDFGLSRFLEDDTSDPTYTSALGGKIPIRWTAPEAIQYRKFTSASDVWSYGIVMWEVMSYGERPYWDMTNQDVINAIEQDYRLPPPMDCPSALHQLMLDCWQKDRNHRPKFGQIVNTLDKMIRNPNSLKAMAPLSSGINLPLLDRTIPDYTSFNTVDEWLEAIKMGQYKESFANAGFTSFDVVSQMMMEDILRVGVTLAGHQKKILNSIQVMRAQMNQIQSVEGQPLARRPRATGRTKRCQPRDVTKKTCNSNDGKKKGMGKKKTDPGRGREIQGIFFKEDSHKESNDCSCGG
Sequence of FGFR3 (P22607 whole entry, looked up): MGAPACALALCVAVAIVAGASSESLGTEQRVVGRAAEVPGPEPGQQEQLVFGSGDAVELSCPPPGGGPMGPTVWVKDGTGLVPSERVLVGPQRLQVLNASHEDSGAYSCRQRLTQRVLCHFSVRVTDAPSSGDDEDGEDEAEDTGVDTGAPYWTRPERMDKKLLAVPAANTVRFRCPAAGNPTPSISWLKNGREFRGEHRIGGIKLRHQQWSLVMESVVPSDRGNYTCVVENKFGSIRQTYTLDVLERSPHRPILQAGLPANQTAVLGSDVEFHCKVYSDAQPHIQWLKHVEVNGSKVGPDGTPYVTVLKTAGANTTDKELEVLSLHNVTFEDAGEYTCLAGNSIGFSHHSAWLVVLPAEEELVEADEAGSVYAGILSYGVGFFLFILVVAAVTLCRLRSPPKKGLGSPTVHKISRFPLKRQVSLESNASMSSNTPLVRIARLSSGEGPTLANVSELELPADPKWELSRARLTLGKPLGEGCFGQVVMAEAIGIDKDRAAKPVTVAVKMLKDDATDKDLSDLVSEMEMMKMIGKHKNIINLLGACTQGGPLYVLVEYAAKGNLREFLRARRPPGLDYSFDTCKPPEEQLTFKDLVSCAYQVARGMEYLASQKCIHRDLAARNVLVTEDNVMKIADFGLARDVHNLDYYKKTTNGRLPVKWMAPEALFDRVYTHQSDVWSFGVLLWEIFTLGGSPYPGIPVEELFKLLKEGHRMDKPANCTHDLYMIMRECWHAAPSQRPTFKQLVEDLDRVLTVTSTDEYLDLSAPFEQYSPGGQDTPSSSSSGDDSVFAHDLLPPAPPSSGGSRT
Sequence of Fyn (P06241 whole entry, looked up): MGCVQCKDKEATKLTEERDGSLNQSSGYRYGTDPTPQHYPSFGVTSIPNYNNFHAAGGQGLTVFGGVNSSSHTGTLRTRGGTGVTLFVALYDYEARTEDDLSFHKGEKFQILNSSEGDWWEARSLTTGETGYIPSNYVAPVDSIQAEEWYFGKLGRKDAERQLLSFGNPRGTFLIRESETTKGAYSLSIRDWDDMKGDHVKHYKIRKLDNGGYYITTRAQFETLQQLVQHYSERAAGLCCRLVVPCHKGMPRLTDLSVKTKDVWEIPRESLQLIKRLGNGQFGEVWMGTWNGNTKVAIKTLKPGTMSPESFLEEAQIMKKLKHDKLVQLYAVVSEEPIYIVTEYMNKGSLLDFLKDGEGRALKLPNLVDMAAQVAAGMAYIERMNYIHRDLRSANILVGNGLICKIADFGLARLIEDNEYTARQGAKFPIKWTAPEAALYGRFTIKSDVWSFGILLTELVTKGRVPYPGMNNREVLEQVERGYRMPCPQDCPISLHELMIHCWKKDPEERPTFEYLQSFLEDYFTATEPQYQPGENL
Sequence of Hck (P08631 whole entry, looked up): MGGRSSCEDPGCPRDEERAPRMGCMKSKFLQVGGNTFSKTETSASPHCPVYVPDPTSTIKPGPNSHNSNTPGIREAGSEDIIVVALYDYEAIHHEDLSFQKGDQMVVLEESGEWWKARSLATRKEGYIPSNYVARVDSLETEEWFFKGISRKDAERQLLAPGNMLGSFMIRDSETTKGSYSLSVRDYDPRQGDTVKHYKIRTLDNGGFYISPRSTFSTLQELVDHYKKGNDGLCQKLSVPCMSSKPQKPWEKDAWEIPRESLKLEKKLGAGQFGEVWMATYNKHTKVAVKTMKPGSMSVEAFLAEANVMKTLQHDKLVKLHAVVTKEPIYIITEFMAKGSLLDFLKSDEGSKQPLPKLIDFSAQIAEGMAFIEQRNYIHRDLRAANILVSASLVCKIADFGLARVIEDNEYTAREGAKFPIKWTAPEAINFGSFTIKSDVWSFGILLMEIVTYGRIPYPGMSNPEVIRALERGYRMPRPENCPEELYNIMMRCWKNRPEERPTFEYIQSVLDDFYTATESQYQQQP
Sequence of MERTK (Q12866 whole entry, looked up): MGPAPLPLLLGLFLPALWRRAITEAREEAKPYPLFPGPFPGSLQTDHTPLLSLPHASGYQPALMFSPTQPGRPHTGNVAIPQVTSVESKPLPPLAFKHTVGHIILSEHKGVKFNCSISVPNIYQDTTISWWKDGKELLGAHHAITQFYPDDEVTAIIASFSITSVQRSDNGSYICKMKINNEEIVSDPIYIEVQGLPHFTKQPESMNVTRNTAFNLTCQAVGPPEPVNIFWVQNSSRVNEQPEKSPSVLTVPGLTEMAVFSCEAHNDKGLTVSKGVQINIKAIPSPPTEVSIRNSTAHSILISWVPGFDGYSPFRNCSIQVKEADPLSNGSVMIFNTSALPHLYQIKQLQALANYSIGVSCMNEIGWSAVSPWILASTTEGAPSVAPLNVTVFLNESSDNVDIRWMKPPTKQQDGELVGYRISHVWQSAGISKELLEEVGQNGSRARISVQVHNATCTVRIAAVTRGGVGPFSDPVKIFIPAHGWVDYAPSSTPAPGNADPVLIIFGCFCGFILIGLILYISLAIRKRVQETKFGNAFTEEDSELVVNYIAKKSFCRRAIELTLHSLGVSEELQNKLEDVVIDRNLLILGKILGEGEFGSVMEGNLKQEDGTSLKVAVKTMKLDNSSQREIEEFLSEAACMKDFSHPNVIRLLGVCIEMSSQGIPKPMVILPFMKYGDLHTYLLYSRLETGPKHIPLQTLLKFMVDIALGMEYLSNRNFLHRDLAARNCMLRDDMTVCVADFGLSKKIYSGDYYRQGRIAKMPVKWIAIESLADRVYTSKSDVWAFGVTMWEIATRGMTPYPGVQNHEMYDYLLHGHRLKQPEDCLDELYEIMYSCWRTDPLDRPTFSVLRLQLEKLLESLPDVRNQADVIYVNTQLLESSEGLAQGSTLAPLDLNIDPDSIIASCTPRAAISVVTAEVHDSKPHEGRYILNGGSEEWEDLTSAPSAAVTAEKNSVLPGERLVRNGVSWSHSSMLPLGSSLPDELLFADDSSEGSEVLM
Sequence of Fes (P07332 whole entry, looked up): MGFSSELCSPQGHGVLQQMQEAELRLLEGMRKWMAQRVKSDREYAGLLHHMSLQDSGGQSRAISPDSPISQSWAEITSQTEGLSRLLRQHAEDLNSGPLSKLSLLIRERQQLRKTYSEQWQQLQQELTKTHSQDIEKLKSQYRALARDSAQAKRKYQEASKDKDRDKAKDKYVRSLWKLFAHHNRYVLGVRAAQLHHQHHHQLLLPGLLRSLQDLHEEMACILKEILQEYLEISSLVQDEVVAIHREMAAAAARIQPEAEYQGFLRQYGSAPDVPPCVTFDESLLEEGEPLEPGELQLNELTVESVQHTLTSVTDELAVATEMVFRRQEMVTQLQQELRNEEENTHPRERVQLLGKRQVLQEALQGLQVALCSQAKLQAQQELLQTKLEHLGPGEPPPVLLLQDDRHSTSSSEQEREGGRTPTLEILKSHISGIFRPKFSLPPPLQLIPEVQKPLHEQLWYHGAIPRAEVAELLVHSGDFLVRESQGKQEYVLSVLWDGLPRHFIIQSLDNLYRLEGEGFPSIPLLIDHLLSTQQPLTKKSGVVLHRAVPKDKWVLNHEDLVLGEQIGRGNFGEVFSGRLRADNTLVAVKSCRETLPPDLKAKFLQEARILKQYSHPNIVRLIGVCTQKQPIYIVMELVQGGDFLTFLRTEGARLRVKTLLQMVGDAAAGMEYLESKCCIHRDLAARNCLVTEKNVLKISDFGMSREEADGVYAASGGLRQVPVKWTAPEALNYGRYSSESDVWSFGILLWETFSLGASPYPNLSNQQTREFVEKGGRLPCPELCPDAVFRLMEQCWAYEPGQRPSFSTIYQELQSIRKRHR

| Sequence | SH2 binding enrichment (Grb2 SH2) | SH2 binding enrichment (c-Src SH2) | SH2 binding enrichment (SHP2-C SH2) | phosphorylation enrichment (Fes) | phosphorylation enrichment (c-Abl (mouse)) | phosphorylation enrichment (Hck) | phosphorylation enrichment (FGFR1) | phosphorylation enrichment (c-Src) | phosphorylation enrichment (EPHB1) | phosphorylation enrichment (Jak2) | phosphorylation enrichment (Fyn) | phosphorylation enrichment (MERTK) | phosphorylation enrichment (Fer (mouse)) | phosphorylation enrichment (EPHB2) | phosphorylation enrichment (FGFR3) | phosphorylation enrichment (AncSZ) |
| --- | --- | --- | --- | --- | --- | --- | --- | --- | --- | --- | --- | --- | --- | --- | --- | --- |
| HCYNSYTYPRL [PAK7_Y316_S312C] | 0.902 | 5.34 | 0.799 | 1.47 | 0.932 | 0.74 | 1.35 | 0.725 | 0.775 | 1.33 | 0.943 | 2.84 | 0.684 | 0.784 | 0.884 | 2.4 |
| HDKEYYSVHNK [MET_Y1235_Y1230H] | 0.939 | 0.783 | 1.67 | 0.729 | 0.706 | 0.911 | 2.8 | 0.506 | 0.714 | 0.75 | 0.739 | 0.503 | 0.865 | 0.472 | 1.88 | 1.24 |
| HDRNTYEKFLG [TF_Y666_YF] | 1.11 | 0.882 | 0.797 | 1.33 | 0.99 | 1.44 | 0.484 | 2.82 | 0.525 | 1.29 | 2.42 | 0.936 | 0.378 | 0.951 | 0.751 | 1.17 |
| HILRVYGGVLP [PCNX4_Y999] | 0.913 | 0.635 | 1.01 | 1.12 | 0.874 | 1.01 | 0.755 | 0.588 | 0.591 | 0.765 | 0.699 | 0.444 | 0.532 | 0.676 | 1 | 1.07 |
| HKANEYFPVVL [ADAMTS18_Y764_YF] | 0.963 | 0.462 | 0.53 | 0.896 | 0.628 | 0.533 | 8.42 | 0.556 | 0.951 | 1.83 | 0.807 | 0.528 | 0.736 | 1.5 | 4.38 | 0.872 |
| HKLSYNEYDFE [BTK_Y40_Y40N] | 1.14 | 0.79 | 0.412 | 1.13 | 0.593 | 0.74 | 0.756 | 2.02 | 0.986 | 0.968 | 3.26 | 0.427 | 0.473 | 0.824 | 0.822 | 1.27 |
| HLELNYKEDEF [MME_Y502_Y497H_YF] | 0.905 | 0.697 | 0.392 | 0.967 | 0.749 | 0.565 | 1.08 | 0.43 | 0.594 | 0.903 | 0.557 | 0.589 | 0.64 | 0.504 | 1.48 | 0.993 |
| HLTNQYMQRVA [PABPC4_Y382] | 1.01 | 0.473 | 0.929 | 0.429 | 1.04 | 0.324 | 0.402 | 0.351 | 0.307 | 0.406 | 0.356 | 0.277 | 0.446 | 0.316 | 0.33 | 0.525 |
| HNGDRYFKGIV [DCX_Y64_R59H] | 0.821 | 0.413 | 0.762 | 0.716 | 0.585 | 0.429 | 0.286 | 0.585 | 0.449 | 0.529 | 0.515 | 0.692 | 0.366 | 0.344 | 0.542 | 0.707 |

Second part, led by results:

| SH2 binding enrichment (Grb2 SH2) | SH2 binding enrichment (c-Src SH2) | SH2 binding enrichment (SHP2-C SH2) | Sequence | phosphorylation enrichment (Fes) | phosphorylation enrichment (c-Abl (mouse)) | phosphorylation enrichment (Hck) | phosphorylation enrichment (FGFR1) | phosphorylation enrichment (c-Src) | phosphorylation enrichment (EPHB1) | phosphorylation enrichment (Jak2) | phosphorylation enrichment (Fyn) | phosphorylation enrichment (MERTK) | phosphorylation enrichment (Fer (mouse)) | phosphorylation enrichment (EPHB2) | phosphorylation enrichment (FGFR3) | phosphorylation enrichment (AncSZ) |
| --- | --- | --- | --- | --- | --- | --- | --- | --- | --- | --- | --- | --- | --- | --- | --- | --- |
| 1.28 | 1.05 | 1.24 | GVTLLYYGRYN [ADGRD1_Y85] | 1.31 | 0.852 | 2.13 | 0.611 | 3.17 | 0.808 | 1.85 | 2.77 | 0.728 | 0.577 | 0.92 | 0.826 | 1.5 |
| 0.818 | 1.46 | 0.676 | GYSRHYEDGYP [CTNND1_Y217] | 0.722 | 0.67 | 0.383 | 0.391 | 0.488 | 0.383 | 0.623 | 0.382 | 0.524 | 0.374 | 0.465 | 0.529 | 0.691 |
| 0.95 | 1.32 | 2.16 | HDRGNYVRLNM [RECQL4_Y353] | 1.3 | 0.929 | 0.765 | 0.711 | 0.592 | 2.3 | 1.09 | 0.993 | 0.837 | 0.671 | 1.35 | 0.943 | 0.944 |
| 0.692 | 0.483 | 0.553 | HFGCVYLGTLL [MET_Y1093_H1094L] | 2.24 | 1.39 | 1.01 | 0.925 | 4.61 | 1.02 | 2.07 | 0.897 | 0.597 | 0.923 | 1.1 | 1.67 | 2.29 |
| 0.832 | 0.56 | 0.682 | HFPDVYAREQL [ALX3_Y181_YF] | 1.04 | 0.667 | 0.722 | 0.55 | 0.91 | 0.619 | 0.616 | 0.588 | 0.408 | 0.561 | 0.703 | 0.514 | 0.713 |
| 1.27 | 1.28 | 2.15 | HFPFQYHRQLY [F12_Y53] | 1.28 | 0.508 | 0.656 | 0.449 | 0.471 | 0.583 | 0.723 | 0.59 | 0.566 | 0.725 | 0.572 | 0.865 | 1.03 |
| 0.775 | 2.81 | 0.791 | HGAGHYEDTIL [ALK_Y1604_P1599H] | 1.17 | 0.958 | 0.724 | 0.787 | 0.752 | 0.829 | 1 | 0.734 | 0.682 | 4.64 | 0.652 | 0.978 | 1.26 |
